# Measurements reported in paper PMC4769169 (eLife, 2016).
# What was measured:
# [1] = target: T1, LRRK2 (Homo sapiens, UniProt Q5S007, G2019S); assay: in vitro kinase assay with recombinant LRRK2 and Rab10, inhibitor at […]; assay type: biochemical
# T1 construct: GST-LRRK2 (residues 960-2527)
# [2] = target: Rabin8 (Rab3IP) 144-460 (UniProt Q96QF0); assay: Ni2+-NTA pull-down by His-Rabin8; details: reference: non-phosphorylated Rab8a; sites T72
# [3] = target: HIS-tagged Rabin8 (residues 144-460) (human) (UniProt Q96QF0)
# Sequence of HIS-tagged Rabin8 (residues 144-460) (human) (Q96QF0 144-460): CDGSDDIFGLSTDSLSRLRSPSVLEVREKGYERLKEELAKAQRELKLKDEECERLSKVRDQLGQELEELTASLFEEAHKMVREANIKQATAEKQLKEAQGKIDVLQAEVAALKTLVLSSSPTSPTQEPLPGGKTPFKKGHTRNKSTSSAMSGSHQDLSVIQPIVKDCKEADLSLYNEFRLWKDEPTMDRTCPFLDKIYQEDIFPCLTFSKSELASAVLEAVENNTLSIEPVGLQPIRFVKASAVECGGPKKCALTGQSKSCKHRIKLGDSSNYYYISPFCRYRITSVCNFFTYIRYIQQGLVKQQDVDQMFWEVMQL
# T1 sequence (Q5S007 960-2527 G2019S): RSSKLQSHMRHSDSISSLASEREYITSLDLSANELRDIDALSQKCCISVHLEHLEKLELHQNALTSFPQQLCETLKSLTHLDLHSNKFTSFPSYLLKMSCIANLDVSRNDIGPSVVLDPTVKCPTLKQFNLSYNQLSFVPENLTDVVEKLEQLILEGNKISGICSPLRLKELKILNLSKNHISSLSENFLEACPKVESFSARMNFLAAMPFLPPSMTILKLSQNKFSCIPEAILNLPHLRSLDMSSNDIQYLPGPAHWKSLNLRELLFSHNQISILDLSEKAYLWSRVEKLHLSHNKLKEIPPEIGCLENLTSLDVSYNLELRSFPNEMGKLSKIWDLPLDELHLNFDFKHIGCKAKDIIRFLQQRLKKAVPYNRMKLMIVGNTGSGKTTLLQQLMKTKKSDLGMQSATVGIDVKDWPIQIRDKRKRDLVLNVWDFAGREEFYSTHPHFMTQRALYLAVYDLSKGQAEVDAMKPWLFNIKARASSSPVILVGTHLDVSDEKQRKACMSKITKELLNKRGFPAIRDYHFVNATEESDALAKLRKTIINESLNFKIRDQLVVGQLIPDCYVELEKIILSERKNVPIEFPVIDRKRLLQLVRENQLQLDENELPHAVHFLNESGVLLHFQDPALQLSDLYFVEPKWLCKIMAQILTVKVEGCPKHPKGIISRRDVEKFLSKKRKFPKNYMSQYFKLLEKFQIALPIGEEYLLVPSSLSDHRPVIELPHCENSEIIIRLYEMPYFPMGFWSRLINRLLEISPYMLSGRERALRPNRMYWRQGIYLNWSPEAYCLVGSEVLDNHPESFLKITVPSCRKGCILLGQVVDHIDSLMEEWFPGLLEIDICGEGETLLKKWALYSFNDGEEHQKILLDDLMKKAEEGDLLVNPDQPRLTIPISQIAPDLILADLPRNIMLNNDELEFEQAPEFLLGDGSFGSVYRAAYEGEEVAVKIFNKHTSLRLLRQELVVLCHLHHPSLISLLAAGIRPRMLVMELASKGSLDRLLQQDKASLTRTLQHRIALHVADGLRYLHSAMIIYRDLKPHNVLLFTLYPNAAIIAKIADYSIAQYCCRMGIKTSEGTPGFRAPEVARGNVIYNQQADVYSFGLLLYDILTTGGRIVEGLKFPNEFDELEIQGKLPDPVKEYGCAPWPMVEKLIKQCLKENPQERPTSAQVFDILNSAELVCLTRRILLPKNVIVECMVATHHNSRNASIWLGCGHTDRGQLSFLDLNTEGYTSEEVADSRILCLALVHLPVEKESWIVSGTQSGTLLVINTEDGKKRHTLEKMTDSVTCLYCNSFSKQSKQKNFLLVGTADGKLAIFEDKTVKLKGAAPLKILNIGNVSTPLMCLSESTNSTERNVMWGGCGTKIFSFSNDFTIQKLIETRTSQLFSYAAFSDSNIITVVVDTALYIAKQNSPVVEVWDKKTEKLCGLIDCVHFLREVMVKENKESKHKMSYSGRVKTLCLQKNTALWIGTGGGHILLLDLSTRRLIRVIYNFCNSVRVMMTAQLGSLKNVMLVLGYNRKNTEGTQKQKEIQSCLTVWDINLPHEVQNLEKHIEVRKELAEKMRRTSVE
molecule,measurement,setting,value
O=C(Nc1cccnc1)c1cc(-c2ccnc(F)c2)ccc1OCc1ccccc1 [GSK2578215A],"in vitro kinase assay with recombinant LRRK2 and Rab10, inhibitor at 2 μM",[1],Inhibition of LRRK2-G2019S by GSK2578215A or HG-10-102-01 prevents phosphorylation.
"Rab8a 1-183 (from UniProt P61006) LRRK2-G2019S-phosphorylated, ion-exchange-enriched pT72-Rab8a",binding against the reference,[2],weaker
Rab8a (1-183) quantitatively phosphorylated pT72 (from UniProt P61006 1-183) (domain or fragment),"rate of Rabin8-catalyzed mant-GDP exchange (GEF assay with Rabin8 144-245, 2 μM), T72-phosphorylated against non-phosphorylated Rab8a (1-183): inhibition",[3],4 fold
